Data reported in publication PMC8960791 (Communications Biology, 2022).
Residue numbers refer to the chain shown, from its start.

B1: CA171 (antibody, V domains shown)
VH: EVQLVESGGGLVQPGGSLRLSCAASGFTFSSYSMNWVRQAPGKGLEWVSYISSSSSTIYYADSVKGRFTISRDNAKNSLYLQMNSLRAEDTAVYYCARTFYSNYLDAFDIWGQGTMVTVSS
VL: EIVLTQSPDTLSMCPGERATLSCRASQSVSSYLAWYQQKPGQAPRLLIYDASNRATGIPARFSGSGSGTDFTLTISSLEPEDFAVYYCQQRSNWLSMYTFGQGTKLEIK
B2: CA168 (antibody, V domains shown)
VH: QVQLVQSGAEVKKPGSSVKVSCKASGGTFSSYAISWVRQAPGQGLEWMGGIIPIFGTANYAQKFQGRVTITADKSTSTAYMELSSLRSEDTAVYYCARALTYYDFPDYGMDVWGQGTTVTVSS
VL: QSALTQPPSASGSPGQSVTISCTGTSSDVGGYNYVSWYQQHPGKVPKLMIYEVTKRPSGVPDRFSGSKSGNTASLTVSGLQAEDEADYYCSSYAGSNNLVFGGGTKLTVL
B3: CA166 (antibody, V domains shown)
VH: EVQLVESGGGLVKPGGSLRLSCAASGFTFSSYSMNWVRQAPGKGLEWVSSISSSSSYIYYADSVKGRFTISRDNAKNSLYLQMNSLRAEDTAVYYCARVMITFGGADYWGQGTLVTVSS
VL: DIQMTQSPSSLSASVGDRVTITCRASQNINTYLNWYQKRPGIAPKLLIYGASSLQSGVPSRFSGSGSGTDFTLTISSLQPEDFATYYCQQYHTSPLTFGGGTPVDIK
B4: CA170 (antibody, V domains shown)
VH: B3 VH with V99D, M100R, I101D, T102L, F103L, G104D, G105A, A106F, Y108I, L114M
VL: SYVLTQPPSVSVAPGQTARITCGGNNIGSKSVHWYQQKPGQAPVLVVYDDSDRPSGIPERFSGSNSGNTATLTISRVEAGDEADYYCQVWDSSSDHPWVFGGGTKLTVL
B5: CA172 (antibody, V domains shown)
VH: QVQLVESGGGLVKPGGSLRLSCAASGFTFSDYYMSWIRQAPGKGLEWVSYISSSSSYTNYADSVKGRFTISRDNAKNSLYLQMNSLRAEDTAVYYCARALRYFDWYDYWGQGTLVTVSS
VL: EIVLTQSPDFQSVTPKGKVTITCRASQSIGSSLHWYQQKPDQSPKLLIKYASQSFSGVPSRFSGSGSGTEFTLTISSLQPEDFATYYCQQLNSYSPITFGQGTRLEIK
B6: CA173 (antibody, V domains shown)
VH: EVQLVESGGGLVKPGGSLRLSCAASGFTFSSYSMNWVRQAPGEGLEWVSSISSSSTYIYYADSVKGRFTISRDNAKNSLYLQMNSLRAEDTAVYYCARDRPAGSSSLGSGYFDLWGRGTLVTVSS
VL: not shown
B7: CA163 (antibody, V domains shown)
VH: QVQLVQSGAGASVKVSCKASGNTFTSYGISWVRQAPGQGLEWMGWIIPYNGNTNYAQKFQGRVTMTTDTSTSTAYMELRSLRSDDTAVYYCARDGEVGAFDNYYYYCGYGVIVTTAS
VL: not shown
B8: CA175 (antibody, V domains shown)
VH: EVQLVESGGGLVQPGGSLRLSCAASGFTFSTYPMNWVRQAPGKGLEWVSYISSSSSTIYYADCVKGRFTISRDNAKNSLYLQMNSLRDEDTAVYYCARYYIAYGMDVWGQGTTVTVSS
VL: DIQMTQSPSSMSASVGDRVTITCRASQGISNYLAWFQQKPGKAPKRLIYGASSLHRGVPSRFSGSGSGTEFTLTITSLQPEDFATYYCLQHNTYPRTFGQGTKVEIK
B9: CA169 (antibody, V domains shown)
VH: EVQLVESGGGLVKPGGSLRLSCAASGFTFSSYSMNWVRQAPGKGLEWVSSISSSSSYIYYADSVKGRFTISRDNAKNSLYLQMNSLRAEDTAVYYCASGVLLEAFDYWGQGTLVTVSS
VL: SYVLTQPPSVSVAPGQTARITCGGNNIGSKSVHWYQQKPGQAPVLVVYDDSDRPSGIPERFSGSNSGNTATLTISRVEAGDEADYYCQVWDSSSDHVVFGGGTKLTVL
B10: CA180 (antibody, V domains shown)
VH: QVQLVQSGAEVKKPGASVKVSCKASGYTFTSYGISWVRQAPGQGLEWMGWISAYNGNTNYAQKLQGRVTMTTDTSTSTAYMELRSLRSDDTAVYYCARDLGYSSSWYTSNWFDPWGQGTLVTVSS
VL: QSALTQPASVSGSPGQSITISCTGTSSDVGSYNLVSWYQQHPGKAPKLMIYEGSKRPSGVSNRFSGSKSGNTASLTISGLQAEDEADYYCCSYAGSSTVVFGGGTKLTVL
B11: CA177 (antibody, V domains shown)
VH: RCSCRSRAPGLVKPSETLSLTCTVSGGSISSYYWSWIRQPPGKGLEWIGYIYYSGSTNYNPSLKSRVTISVDTSKNQFSLKLSSVTAADTAVYYCASHDYTDHAAGYWGQGTLVTVSS
VL: not shown
B12: CA176 (antibody, V domains shown)
VH: QVQLVESGGGVVQPGRSLRLSCAASGFTFSSYGMHWVRQAPGKGLEWVAVISYDGSNKYYADSVKGRFTISRDNSKNTLYLQMNSLRAEDTAVYYCAKDEGSSDFWSGYYASFDYWGQGTLVTVSS
VL: DIQMTQSPISLSASVGDRVTITCRASQDISNYLTWYQQKPGKAPKLLIYAASSLQSGVPSRFSGSGSGTDFTLTISNLQPEDFATYYCQQNYSYPCTFGQGTKVEIK
B13: CA178 (antibody, V domains shown)
VH: QVQLVQSGAEVKKPGSSVKVSCKASGGTFSSYAISWVRQAPGQGLEWMGGIIPIFGTANYAQKFQGRVTITADESTSTAYMELSSLRSEDTAVYYCARDYGGSYYYEYFQHWGQGTLVTVSS
VL: not shown

target: soluble HLA-E-VL9, HLA-E*01:03 heavy chain refolded with β2-microglobulin and synthetic VL9 peptide (Homo sapiens, HLA-E*01:03, strain)

binding result | Binder
binds | B1
binds | B2
binds | B3
binds | B4
binds | B5
binds | B6
binds | B7
binds | B8
binds | B9
binds | B10
binds | B11
binds | B12
binds | B13
